From patent publication US20240043515A1 (Chugai, published 2024) come the findings set out here.

The target of assay [1] is T1, hFcγRIIaH on Jurkat effector cells (human, UniProt P12318 34-317).
T1 sequence (looked up): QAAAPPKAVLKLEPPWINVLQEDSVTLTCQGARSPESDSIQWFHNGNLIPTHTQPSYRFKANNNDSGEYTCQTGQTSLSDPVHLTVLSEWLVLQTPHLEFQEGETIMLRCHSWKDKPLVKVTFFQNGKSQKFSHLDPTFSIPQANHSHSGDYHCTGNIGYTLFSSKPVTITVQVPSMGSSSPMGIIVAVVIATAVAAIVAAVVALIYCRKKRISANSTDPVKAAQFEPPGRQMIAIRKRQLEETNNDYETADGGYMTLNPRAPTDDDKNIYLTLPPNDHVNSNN
The experiment in a line: cell-based or functional assay.

Assay [2] addresses T2, human FcγRIa extracellular domain (human, UniProt P12314 16-292).
T2 construct: extracellular domain; also called hFcγR Ia
The experiment in a line: SPR; KD of G1d divided by KD of this antibody.

The target of assay [3] is T3, human FcγRIIIa V extracellular domain (human, UniProt P08637 17-208).
T3 construct: extracellular domain; also called hFcγR IIIa V; FcγRIIIa allotype V158
T3 sequence (P08637 17-208 F176V): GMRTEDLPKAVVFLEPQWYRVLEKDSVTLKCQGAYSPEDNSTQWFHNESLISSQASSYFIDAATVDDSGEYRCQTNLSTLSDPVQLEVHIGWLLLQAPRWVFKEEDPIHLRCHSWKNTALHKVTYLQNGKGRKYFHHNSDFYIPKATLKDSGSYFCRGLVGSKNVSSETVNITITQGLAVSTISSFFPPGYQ
Description: SPR; KD of G1d divided by KD of this antibody. (Surface plasmon resonance follows binding to a sensor surface in real time, without labels.)

Assay [4] addresses T4, human FcγRIIa H extracellular domain (human, UniProt P12318 34-217).
T4 construct: extracellular domain; also called hFcγR IIa H; FcγRIIa allotype H131
T4 sequence (looked up): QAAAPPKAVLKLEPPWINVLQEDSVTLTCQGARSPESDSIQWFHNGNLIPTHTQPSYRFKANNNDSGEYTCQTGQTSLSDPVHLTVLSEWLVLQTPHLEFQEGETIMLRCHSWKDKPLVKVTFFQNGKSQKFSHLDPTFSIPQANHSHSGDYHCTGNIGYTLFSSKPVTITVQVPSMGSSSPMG
Description: SPR; KD of G1d divided by KD of this antibody.

In assay [5] the target is T5, human FcγRIIa R extracellular domain (human, UniProt P12318 34-217).
T5 construct: extracellular domain; also called hFcγR IIa R; FcγRIIa allotype R131
T5 sequence (looked up): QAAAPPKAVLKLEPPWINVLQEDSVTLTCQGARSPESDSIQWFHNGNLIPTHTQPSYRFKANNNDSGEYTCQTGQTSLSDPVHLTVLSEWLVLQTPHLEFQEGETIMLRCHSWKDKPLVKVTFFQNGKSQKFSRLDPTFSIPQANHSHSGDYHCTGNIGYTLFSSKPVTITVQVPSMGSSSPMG
Description: SPR; KD of G1d divided by KD of this antibody.

In assay [6] the target is T6, human FcγRIIb extracellular domain (human, UniProt P31994 43-217).
T6 construct: extracellular domain; also called hFcγR IIb
T6 sequence (looked up): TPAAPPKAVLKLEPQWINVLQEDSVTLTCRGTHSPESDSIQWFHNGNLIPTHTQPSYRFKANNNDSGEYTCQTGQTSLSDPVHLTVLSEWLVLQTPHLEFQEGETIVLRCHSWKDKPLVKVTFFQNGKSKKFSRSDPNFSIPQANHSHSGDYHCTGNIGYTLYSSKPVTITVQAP
Description: SPR; KD of G1d divided by KD of this antibody.

For assay [7], the target named is T7, human FcγRIIIa F extracellular domain (human, UniProt P08637 17-208).
T7 construct: extracellular domain; also called hFcγR IIIa F; FcγRIIIa allotype F158
T7 sequence (P08637 17-208): as the sequence (P08637 17-208 F176V) above, with V160F counted along it
Description: SPR; KD of G1d divided by KD of this antibody.

The target in assay [8] is T3, human FcγRIIIa V extracellular domain. The experiment in a line: SPR; KD for hFcγRIIb divided by KD for this FcγR.
The target of assay [9] is T4, human FcγRIIa H extracellular domain. The experiment in a line: SPR; KD for hFcγRIIb divided by KD for this FcγR.
Assay [10] addresses T5, human FcγRIIa R extracellular domain. The experiment in a line: SPR; KD for hFcγRIIb divided by KD for this FcγR.
The target in assay [11] is T7, human FcγRIIIa F extracellular domain. Description: SPR; KD for hFcγRIIb divided by KD for this FcγR.
In assay [12] the target is hFcγRIIIaV on Jurkat effector cells (human, UniProt P08637 17-254). The experiment in a line: cell-based or functional assay.
hFcγRIIIaV on Jurkat effector cells, sequence (P08637 17-254, form in doubt): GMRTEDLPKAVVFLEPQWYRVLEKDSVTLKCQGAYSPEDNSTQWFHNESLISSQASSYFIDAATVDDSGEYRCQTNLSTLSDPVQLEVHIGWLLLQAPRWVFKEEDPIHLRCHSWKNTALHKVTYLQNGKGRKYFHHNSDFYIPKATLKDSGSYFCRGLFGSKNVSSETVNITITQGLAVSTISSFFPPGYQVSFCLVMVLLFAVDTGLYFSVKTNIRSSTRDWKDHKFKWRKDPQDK

T2 sequence (P12314 16-292): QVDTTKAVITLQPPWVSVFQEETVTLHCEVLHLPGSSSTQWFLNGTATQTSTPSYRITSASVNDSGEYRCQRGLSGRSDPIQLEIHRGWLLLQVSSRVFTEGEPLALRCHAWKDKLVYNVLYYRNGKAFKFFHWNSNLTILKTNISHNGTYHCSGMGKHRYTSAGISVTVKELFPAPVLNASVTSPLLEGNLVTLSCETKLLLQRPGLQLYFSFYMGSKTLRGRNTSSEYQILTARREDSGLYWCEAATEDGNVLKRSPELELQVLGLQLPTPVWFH

B1: EGL-ART10 (H240-Kn494/L73-k0//H240-H1514/L73-k0) (antibody, human IgG1, kappa)
heavy 1: QDQLVQSGAEVKKPGASVKVSCKASGFNIKDTYIQWVRQAPGQGLEWMGRIDPLRKQTKYREKFEGRVTITADTSTNTAYMELSSLRSEDTAVYYCVRSGREFDYWGQGTLVTVSSASTKGPSVFPLAPSSKSTSGGTAALGCLVKDYFPEPVTVSWNSGALTSGVHTFPAVLQSSGLYSLSSVVTVPSSSLGTQTYICNVNHKPSNTKVDKKVEPKSCDKTHTCPPCPAPEFQWGPMVFLFPPKPKDVLMISRTPEVTCVVVDVSDEEPEVKFNWYVDGVEVHNAKTKPREEQYNATYRVVSVLPVLHQDWLNGKEYKCKVSNKALPAPEEKTISKAKGQPREPQVCTLPPSRDELTKNQVSLWCLVKGFYPSDIAVEWESNGQPENNYKTTPPVLDSDGSFFLYSKLTVDKSRWQQGNVFSCSVMHEALHNHYTQKSLSLSP
heavy 2: QDQLVQSGAEVKKPGASVKVSCKASGFNIKDTYIQWVRQAPGQGLEWMGRIDPLRKQTKYREKFEGRVTITADTSTNTAYMELSSLRSEDTAVYYCVRSGREFDYWGQGTLVTVSSASTKGPSVFPLAPSSKSTSGGTAALGCLVKDYFPEPVTVSWNSGALTSGVHTFPAVLQSSGLYSLSSVVTVPSSSLGTQTYICNVNHKPSNTKVDKKVEPKSCDKTHTCPPCPAPELLGGPSVFLFPPKPKDVLMISRTPEVTCVVVDVSHEEPEVKFNWYVDGVEVHNAKTKPREEQYNATYRVVSVLPVLHQDWLNGKEYKCKVSNDALPAPEEETISKAKGQPREPQVYTLPPSRCELTKNQVSLSCAVKGFYPSDIAVEWESNGQPENNYKTTPPVLDSDGSFFLVSKLTVDKSRWQQGNVFSCSVMHEALHNHYTQKSLSLSP
light: DIQMTQSPSSLSASVGDRVTITCRASQDIHKYIAWYQQKPGQAPRLLIQYTSTLQPGVPSRFSGSGSGTDYTFTISSLQPEDIATYYCLQYEQLRTFGGGTKVEIKRTVAAPSVFIFPPSDEQLKSGTASVVCLLNNFYPREAKVQWKVDNALQSGNSQESVTEQDSKDSTYSLSSTLTLSKADYEKHKVYACEVTHQGLSSPVTKSFNRGEC
notes: Kn494: L234F/L235Q/G236W/S239M/T250V/H268D/D270E/S298A/T307P/I332E + Y349C/T366W; H1514: T250V/D270E/S298A/T307P/K326D/I332E/K334E + D356C/T366S/L368A/Y407V
Regarding B1, the “EC50 of reporter gene induction (ADCP Reporter Bioassay, Hepa1-6/hEREG target cells)” value in assay [1] was found to be 0.0419 µg/mL. The “Relative value to KD between G1d and hFcgRs” value in assay [2] worked out at 3.4 times; in [3] it was 566 times; in assay [4], 2.7 times; in assay [5], 1.5 times; in [6], 1.4 times; in [7], 1290 times. Moreover, the “A/I ratio (KD for FcγRIIb divided by KD for each FcγR)” value in assay [8] worked out at 11400 ratio; in assay [9], 17.3 ratio; in assay [10], 6.6 ratio; in assay [11] it was 3160 ratio. In assay [12], the “EC50 of reporter gene induction (ADCC Reporter Bioassay, Hepa1-6/hEREG target cells)” value came to 0.000107 µg/mL.

B2: EGL-ART12 (H240-Kn498/L73-k0//H240-H1518/L73-k0) (antibody, human IgG1, kappa)
heavy 1: QDQLVQSGAEVKKPGASVKVSCKASGFNIKDTYIQWVRQAPGQGLEWMGRIDPLRKQTKYREKFEGRVTITADTSTNTAYMELSSLRSEDTAVYYCVRSGREFDYWGQGTLVTVSSASTKGPSVFPLAPSSKSTSGGTAALGCLVKDYFPEPVTVSWNSGALTSGVHTFPAVLQSSGLYSLSSVVTVPSSSLGTQTYICNVNHKPSNTKVDKKVEPKSCDKTHTCPPCPAPEFQWGPMVFLFPPKPKDVLMISRTPEVTCVVVDVSDEEPEVKFNWYVDGVEVHNAKTKPREEQYNATYRVVSVLPVLHQDWLNGKEYKCKVSNKALPMPIEKTISKAKGQPREPQVCTLPPSRDELTKNQVSLWCLVKGFYPSDIAVEWESNGQPENNYKTTPPVLDSDGSFFLYSKLTVDKSRWQQGNVFSCSVMHEALHNHYTQKSLSLSP
heavy 2: QDQLVQSGAEVKKPGASVKVSCKASGFNIKDTYIQWVRQAPGQGLEWMGRIDPLRKQTKYREKFEGRVTITADTSTNTAYMELSSLRSEDTAVYYCVRSGREFDYWGQGTLVTVSSASTKGPSVFPLAPSSKSTSGGTAALGCLVKDYFPEPVTVSWNSGALTSGVHTFPAVLQSSGLYSLSSVVTVPSSSLGTQTYICNVNHKPSNTKVDKKVEPKSCDKTHTCPPCPAPELLGGPSVFLFPPKPKDVLMISRTPEVTCVVVDVSHEEPEVKFNWYVDGVEVHNAKTKPREEQYNATYRVVSVLPVLHQDWLNGKEYKCKVSNDALPMPIEETISKAKGQPREPQVYTLPPSRCELTKNQVSLSCAVKGFYPSDIAVEWESNGQPENNYKTTPPVLDSDGSFFLVSKLTVDKSRWQQGNVFSCSVMHEALHNHYTQKSLSLSP
light: DIQMTQSPSSLSASVGDRVTITCRASQDIHKYIAWYQQKPGQAPRLLIQYTSTLQPGVPSRFSGSGSGTDYTFTISSLQPEDIATYYCLQYEQLRTFGGGTKVEIKRTVAAPSVFIFPPSDEQLKSGTASVVCLLNNFYPREAKVQWKVDNALQSGNSQESVTEQDSKDSTYSLSSTLTLSKADYEKHKVYACEVTHQGLSSPVTKSFNRGEC
notes: Kn498: L234F/L235Q/G236W/S239M/T250V/H268D/D270E/S298A/T307P/A330M + Y349C/T366W; H1518: T250V/D270E/S298A/T307P/K326D/A330M/K334E + D356C/T366S/L368A/Y407V
Take B2: in assay [1], the “EC50 of reporter gene induction (ADCP Reporter Bioassay, Hepa1-6/hEREG target cells)” value stood at 0.085 µg/mL. For the same molecule, the “Relative value to KD between G1d and hFcgRs” value in [2] was found to be 3.4 times; in assay [3], 158 times; in [4], 3.1 times; in [5], 1 times; in [6] it was 0.5 times; in assay [7] it was 578 times. Moreover, the “A/I ratio (KD for FcγRIIb divided by KD for each FcγR)” value stood at 9720 ratio in assay [8], 60.3 ratio in [9], 12.8 ratio in assay [10] and 4310 ratio in assay [11]. The “EC50 of reporter gene induction (ADCC Reporter Bioassay, Hepa1-6/hEREG target cells)” value in assay [12] amounted to 0.000304 µg/mL.
